The values that follow come from the supplement of paper PMC12042874.

± gives the uncertainty stated by the source.

The nature of the data set: amyloid nucleation score (Sup35N fusion, yeast selection) (log enrichment); library NNK1; higher = more nucleation; inactive = no reads after selection. The essentials:
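Yeast lacking psi expressed peptides of 20 random codons fused to Sup35N, received 100 μM copper sulfate for 24 hours, and were then grown for 7 days at 30°C on medium lacking adenine and uracil. Illumina sequencing of input and output plasmid inserts provided the reads. Nucleation scores are DiMSum log enrichments of output over input, centred on the mode of non-aggregating sequences. Any sequence with under 100 input reads was excluded.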
Substance QYWVCNKPTLVDYRDTCDRT gave an amyloid nucleation score of 0.023 ± 0.89.

In the case of SCIYLNGSPVDEDGKYVHDF, the amyloid nucleation score result is “inactive”.

For TTEFIGES, the amyloid nucleation score stood at 1.25 ± 0.73.

VDLVGYVVGIFNVYKVVEDT displayed an amyloid nucleation score of -0.321 ± 0.23.

KQTLLYHSSGSCCWELVSWW yielded an amyloid nucleation score of 4.39 ± 0.097.

Substance RPYGPYALLWSISIYAWELL had an amyloid nucleation score of 0.508 ± 0.61.

In turn, KGKPYFAEMLHIMSFVWSSD registered an amyloid nucleation score of 1.3 ± 0.6. For FRLRVSGVSCMR, the amyloid nucleation score is -0.912 ± 2.4.

In turn, WTAGWL registered an amyloid nucleation score of -0.065 ± 0.44. For LRYAG, the amyloid nucleation score was -0.87 ± 0.53. As for YLVAVVIGSIPAPSRMYSVA, the figure is 0.904 ± 0.51. For the substance HYLISSCWIIRSGWADGTGR, the amyloid nucleation score worked out at 1.01 ± 0.15. As for VSSFWRELVPYGMVCRESSL, the figure is 0.178 ± 0.56; as for CSKIVYPCSTFTSLFYLFLP, -0.614 ± 0.8; as for LVGFSVSYKVSENFCSTL, “inactive”.

Substance DYIIPMLSI displayed an amyloid nucleation score of 0.515 ± 0.9. Then FAWGREVRLEIEY, with 0.371 ± 0.31; and SECLLYSWRVILSRLSPESE, with 0.257 ± 0.62.

Substance SCLLTMSLE returned an amyloid nucleation score of 0.11 ± 0.43. NLINSIGIVEAWEILPASSR came in with an amyloid nucleation score of 0.124 ± 1.2. Then LRARMCYRAPLRFR, with -0.257 ± 1.7; and RALSH, with -0.158 ± 0.74; and WVNVTRVNGRDEGAPSIRNK, with -0.787 ± 0.4. As for GGRLRW, the figure is 0.452 ± 0.48; as for RRVGVYDGLRIFS, 0.086 ± 0.93. As for LVGMCNHTYDS, the figure is 0.998 ± 0.66. For FYQYVKCVIVPSVDALGVFS, the amyloid nucleation score was determined as 0.931 ± 0.2. For RWCLSTRKFSWR, the amyloid nucleation score was 0.305 ± 0.42.

On to SFFWVYHRYSMPRSLCVM, for which the amyloid nucleation score result was “inactive”. Then QFGWFWFLNYALQDFDN, with -0.696 ± 0.75; and GLDKALTFKALCDLLRNSLC, with 0.598 ± 1.2; and GFLDVALTLSWANHRGDSSV, with 3.04 ± 0.13. Then HRWTLMEVYITGIALKYVVY, with -0.58 ± 0.76; and GIGAVSAC, with 0.317 ± 0.56; and QMRAFSDLFLLSDY, with 0.406 ± 0.46. Then LYCNVISILACFVTTIRGRG, with 3.64 ± 0.16; and NNVRVDKACGEAMEDEKRVV, with 0.672 ± 0.37; and KFRRW, with -0.832 ± 0.56. RLGAGCSPSLVLS registered an amyloid nucleation score of 0.197 ± 0.56. Then YANTTWSLTLTTVQHRNVAD, with 3.35 ± 0.16; and SNGHNAILVA, with “inactive”; and YWLLLSSENRECVLVTRRHR, with -0.585 ± 1.7. With GTHEVLCNDHPCVYRHILRC, the amyloid nucleation score was -0.753 ± 0.3.

Take DSRGHGEPRRTWEW: the amyloid nucleation score was -0.006 ± 0.58. Substance KIVRSRWFIICACVKLRTRL had an amyloid nucleation score of 0.427 ± 0.36. Then VATPSSCVDSQAKTRMTGTL, with -0.112 ± 0.44; and WTRLLD, with “inactive”.

MFLNII registered an amyloid nucleation score of -0.112 ± 0.74.

SSFLFSFWGAIGSIKSTFFW displayed an amyloid nucleation score of -0.054 ± 0.24. As for RCMSDFRPVWVYVS, the amyloid nucleation score is -0.222 ± 0.86.

For LTSCASLWEDRVVLSCLPGG, the amyloid nucleation score entry was “inactive”. For the substance KMTCCSGSINDGYLYCVYNV, the amyloid nucleation score amounted to 6.56 ± 0.071. As for MSVEIVTIGGGF, the figure is -0.481 ± 1.4.

In turn, YTNGNIASTVLYLRPGYHLA came in with an amyloid nucleation score of 1.06 ± 0.49. As for HNLLM, the entry is “inactive”.

Turning to KIALTLIRRLQFLNDSVKPQ, the amyloid nucleation score is 1.71 ± 0.17. Then NNYVYLSLSFPVGTVC, with -0.377 ± 0.61. As for THSRFSYGVVNR, the figure is 0.683 ± 1; as for VSCRR, “inactive”.

In turn, YDYHRNLSNHFLCFTLNWLT yielded an amyloid nucleation score of 5.23 ± 0.072. As for DFAYMSVLWIVVMLRGFLVK, the figure is 0.639 ± 0.45; as for GTLNMIFRFGMHAIVSYFWG, 0.024 ± 0.4; as for QRLGQGIGGEWPTKL, 0.995 ± 0.67. GKFRYHGRAMRHSARALIYF showed an amyloid nucleation score of 0.451 ± 0.42. Regarding GPTRLDAEG, the amyloid nucleation score is -0.54 ± 0.87. LFTIMTLDCNFRLSGLSLAI: the amyloid nucleation score is 0.236 ± 0.21. For the substance SLCRGATGGDGWWGVCSSA, the amyloid nucleation score is 0.614 ± 0.91.

IKMRWISFKCLPYCMFKNRI returned an amyloid nucleation score of -0.355 ± 0.35.

CRPVGSTVVSVDNGTS showed an amyloid nucleation score of -0.188 ± 0.37. As for FYIFCDDFTGCS, the figure is 1.84 ± 0.11; as for LMNICRNVARG, -0.876 ± 0.71; as for CSYPVECSGSMYVSEKTSIF, “inactive”. SRVSNCISLVMYKAKLCSIR yielded an amyloid nucleation score of 0.644 ± 0.5.

The substance QTEQMFGRVDIVYLPAIWSS had an amyloid nucleation score of 0.447 ± 0.45. Then TERDCRCSFGTVPMCSMGNW, with 0.595 ± 0.34; and RSVSLKWQSRKHWLLTLTLA, with 0.931 ± 0.32. As for MFGKLLICYRLYK, the figure is 0.084 ± 0.75. Substance TTHLSHIYLLDASYNYKDSR returned an amyloid nucleation score of 0.27 ± 0.36.

SAPENSWGAWLDYGELEVGW registered an amyloid nucleation score of 0.016 ± 0.35. In turn, WDETY registered an amyloid nucleation score of 4.62 ± 0.07. As for VSFRFLMGFVYVKCWSSSLD, the figure is 1.38 ± 0.69; as for CKFIFRKIVVGFCFDQQ, 3.67 ± 0.1. For the substance AWAKFCCSD, the amyloid nucleation score was -0.012 ± 1.1. Then NRLCDK, with 1.25 ± 0.35. Then TFWYLLNCVSRLFNF, with -0.013 ± 0.57; and FVYHWRSVKGNLVWRCGSMD, with 0.95 ± 0.63; and RSSKYVNHASQKNAHLRGCS, with 0.641 ± 0.7. Then MHMGFAWMSLIM, with “inactive”; and CRQVFLFLVVPKYYNRMLST, with -0.251 ± 0.31; and STCNYLDSGGRDRCSFFNCD, with 0.078 ± 0.47. With LRGRSPNYEALKMLYFFLLV, the amyloid nucleation score is 0.314 ± 1.4. As for SDLELTTLFF, the figure is -0.57 ± 0.37; as for PNYDVMSLYRTNYGNYSHSV, 0.471 ± 0.38; as for YRRGKIAWGSTARHETVFIL, 0.336 ± 0.52. The substance MTYTSWMMNRFNITNSYNLV gave an amyloid nucleation score of 0.755 ± 0.97. As for VRNHVYGLCVSWTAGDKCNR, the figure is 5.03 ± 0.087; as for FELGWMYSYKMAKLPWYMTC, 0.362 ± 0.99. Substance KDVFY had an amyloid nucleation score of -0.294 ± 0.5. Then FFWHVS, with 0.091 ± 0.65; and DTCYHINIGKTQSADQRDCT, with 0.219 ± 0.25. As for TFSFTAYNPCFDSFSTVGLS, the figure is -0.147 ± 0.45. As for LCDMAIDVFCLSCCK, the figure is 6.652 ± 0.05; as for YCGGY, 2.9 ± 0.087. For HDSNHFLRDLLVILRYYEAV, the amyloid nucleation score entry was “inactive”. In the case of FRYIYMMDMSSYQYVKRGSS, the amyloid nucleation score entry is “inactive”. Then FSLDMSTCVLENFVLDTFQH, with -2.21 ± 2.7; and TILVNKRR, with -1.28 ± 0.65; and KCIYVFSYIYTFLNMCWRGH, with 3.5 ± 0.1. As for VIGKMDEVGSIVEFDSGIRV, the figure is 0.658 ± 0.47. On to SCYIDYNFYSWQGSWYCFKI, for which the amyloid nucleation score result was “inactive”.

Take FPCSRIELVVSVCVAWVNSC: the amyloid nucleation score was determined as 1.42 ± 0.28. Then VLGTLSMFYFRAYFRPAWLS, with -0.278 ± 0.5; and LYPMGYVRRCI, with -0.29 ± 0.54. Then NVIFPTYRFVRFPSYMTLGW, with “inactive”; and NVIRTQQSR, with 0.208 ± 0.52.

Substance LRFLWRRRS registered an amyloid nucleation score of 0.949 ± 0.28. Then CSDSNIPLHNHSWGTSVVDN, with 1.31 ± 0.63; and STDSLLRWIKPERDGYRFLW, with -0.479 ± 0.45. As for SLIMIGIFFYFSLSKQPRSV, the figure is 0.027 ± 1.7; as for NDRPMMEVGMDPTPAGVLRE, 0.276 ± 0.49. Take RYDAWCYGWGVMMLHKFIG: the amyloid nucleation score is -0.012 ± 0.64. Substance TEIIFYLVYGWLTFRILGYN displayed an amyloid nucleation score of -0.705 ± 0.43. As for FSNIWMSTMVPSRVRKARCV, the figure is 0.05 ± 0.75; as for QTTFGLMIFT, 0.89 ± 0.93. Then RGLLYS, with 0.768 ± 0.75. Then CYSRAYEEARSAI, with 1.21 ± 0.76; and VSRVNYNVFSVGISKSVCD, with 0.201 ± 0.85; and VLRWYEDNPFC, with 0.291 ± 0.32. For the substance LGLTYWCYNFIQGDVFPPVQ, the amyloid nucleation score was found to be 3.46 ± 0.15. As for TQVWKPLHKTSLHYSDREVS, the figure is -0.111 ± 0.38. As for GLRVPPHDVLMSIARLDVSK, the entry is “inactive”; as for LTGCLNEYGVSNFMEVRVFR, -1.88 ± 2.7. Then NLLGYVNVQVGAVYTGNNRL, with 7.602 ± 0.066. GRLCPLRSKTSFNCY yielded an amyloid nucleation score of -1.81 ± 1.3. Then GLTCMHPWWLSHAEKRLVEL, with 1.05 ± 0.49.

LRVPRCMIKRLHYGICPSSG displayed an amyloid nucleation score of 0.094 ± 0.91. As for FYFRPNDQSWYVTRLFLSPA, the figure is 0.491 ± 0.93; as for WSGIIELC, 1.74 ± 0.78; as for DNGCDEVCWELVFEFVD, 0.562 ± 0.39.

GPSRRTLRGNFNHLVTYWCP showed an amyloid nucleation score of 0.003 ± 0.46. Then LTISTYSCWGEF, with 0.456 ± 0.66.
